Target: cell surface TrkA on the human erythroleukemic cell line TF-1 (human), P04629
Test: cell-based or functional assay

cell surface TrkA on the human erythroleukemic cell line TF-1 (human), P04629, sequence (P04629 33-796): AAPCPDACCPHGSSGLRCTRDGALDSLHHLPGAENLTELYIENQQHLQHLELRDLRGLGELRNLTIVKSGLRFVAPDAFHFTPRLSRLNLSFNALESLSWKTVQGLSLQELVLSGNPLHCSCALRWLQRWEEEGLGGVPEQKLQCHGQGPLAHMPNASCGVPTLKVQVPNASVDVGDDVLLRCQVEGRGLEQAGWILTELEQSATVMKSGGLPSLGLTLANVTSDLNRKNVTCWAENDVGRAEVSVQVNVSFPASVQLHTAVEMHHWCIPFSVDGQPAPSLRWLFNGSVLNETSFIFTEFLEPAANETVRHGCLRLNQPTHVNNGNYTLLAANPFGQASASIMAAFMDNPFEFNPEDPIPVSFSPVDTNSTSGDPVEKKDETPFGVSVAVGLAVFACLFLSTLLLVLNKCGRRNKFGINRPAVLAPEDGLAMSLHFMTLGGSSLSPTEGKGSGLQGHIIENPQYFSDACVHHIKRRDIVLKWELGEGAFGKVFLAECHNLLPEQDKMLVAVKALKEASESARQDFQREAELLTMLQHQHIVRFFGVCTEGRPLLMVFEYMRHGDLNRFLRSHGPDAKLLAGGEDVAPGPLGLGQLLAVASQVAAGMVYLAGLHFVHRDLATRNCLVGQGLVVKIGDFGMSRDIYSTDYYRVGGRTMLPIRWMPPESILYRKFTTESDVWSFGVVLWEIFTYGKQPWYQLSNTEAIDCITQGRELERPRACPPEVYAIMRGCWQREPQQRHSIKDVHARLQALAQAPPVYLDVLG

B1: MNAC13 mouse antibody (antibody, mouse IgG1, kappa)
heavy: EVKLVESGGGLVQPGGSLKLSCAASGFTFSTYTMSWARQTPEKRLEWVAYISKGGGSTYYPDTVKGRFTISRDNAKNTLYLQMSSLKSEDTALYYCARGAMYGNDFFYPMDYWGQGTSVTVSSKTTPPSVYPLAPGSAAQTNSMVTLGCLVKGYFPEPVTVTWNSGSLSSGVHTFPAVLESDLYTLSSSVTVPSSPRPSETVTCNVAHPASSTKVDKKIVPRDCGCKPCICTVPEVSSVFIFPPKPKDVLTITLTPKVTCVVVDISKDDPEVQFSWFVDDVEVHTAQTQPREEQFNSTFRSVSELPIMHQDWLNGKEFKCRVNSAAFPAPIEKTISKTKGRPKAPQVYTIPPPKEQMAKDKVSLTCMITDFFPEDITVEWQWNGQPAENYKNTQPIMNTNGSYFVYSKLNVQKSNWEAGNTFTCSVLHEGLHNHHTEKSLSHSPGK
light: QIVLTQSPAIMSASLGEEITLTCSASSSVSYMHWYQQKSGTSPKLLIYTTSNLASGVPSRFSGSGSGTFYSLTISSVEAEDAADYYCHQWSSYPWTFGGGTKLEIKADAAPTVSIFPPSSEQLTSGGASVVCFLNNFYPKDINVKWKIDGSERQNGVLNSWTDQDSKDSTYSMSSTLTLTKDEYERHNSYTCEATHKTSTSPIVKSFNRNEC
Binder B1 has a TF-1 cell proliferation assay IC50 (NGF-induced) of 0.23 µg/mL.

Source: patent publication US20170218087A1
